From article PMC10632791

System: DegU (Bacillus velezensis DMW1)
Experiment: MST
Details: MST: 50 mM Tris pH 7.5, 150 mM NaCl, 10 mM MgCl2, 0.05% Tween 20, 25 C

Substance	Kd
pbae	110 nM
pdfn	140 nM
pfen	1170 nM
pitu	30 nM
pmln	130 nM
psrfA	670 nM

Target: T1, DegU (Bacillus velezensis DMW1) (UniProt A3KLC2)
T1 sequence: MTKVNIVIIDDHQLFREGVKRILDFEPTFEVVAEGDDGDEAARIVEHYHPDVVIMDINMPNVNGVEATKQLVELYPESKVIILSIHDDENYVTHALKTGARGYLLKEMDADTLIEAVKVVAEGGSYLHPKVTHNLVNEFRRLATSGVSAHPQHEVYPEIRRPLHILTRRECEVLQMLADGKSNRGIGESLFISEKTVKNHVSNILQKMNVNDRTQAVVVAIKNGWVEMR
Experiment: EMSA
Details: MST: 50 mM Tris pH 7.5, 150 mM NaCl, 10 mM MgCl2, 0.05% Tween 20, 25 C

Substance	binding
AGTGCTCTATGTAAAATAGAGTGCTTTTTTTGCGGTTTAATGAAATCATATTGCGAACATTCGGACCGTCTGTTTCGGTTCTTGCGCTGTTTTTTCCGGGTCAGCTTACGTACGTAAATTTTTTTCATTCTGCCATAACTGGATATTTGACAGATTTTCATTATAGTTTAAAGATTTTTAATTTTACGTAAATAATATTTTTGAAAATAAATTGCGGGATGCCGCAAAATACCCTCTGGATTCGTCGGATTTTTTTTCGGTGTGCCGCATGAAACTTTTCACCCATTTTTCG (double strand) [P01 (srfA promoter -328 to -36)]	no binding
ATGTGTGCGCCTCCCCTTTTTAAGATAAAGTTGTCAATTCTCCCTTAGAAACAGCCTCCCTCTATGTCCCTAACTCATTCTCAAGCCAAAAGAACCACTTACCTCCAAAAACGATCCCGATTCAATCACCGCCGAAATCCGTCATCCGTTCACCCGCGCAGTCCGAAATGCGGCATCAAATTTATGAGAAATCAAGACAAAAAGCCATTGATTGTAAGCACGAAAGGTTTACCTATTTCTGCATGTATTTCTATATATCTACTTACGTTCACTTTATATGAAAATATTGTTTTTATCAC (double strand) [P02 (srfA promoter -35 to +263)]	binds
